test system: Escherichia coli TOP10; test: shrunken log2 fold change of peptide-encoding DNA abundance (4.5 h post-induction vs induction); higher = less antimicrobial activity (less host growth inhibition); details: time post-induction: 4.5 h; library: site-saturation at positions 5, 18, 19, 20
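Note: peptides expressed intracellularly from a pBAD plasmid library in pooled LB shake-flask culture, induced with 0.3% L-arabinose, DNA abundance read by NGS, three biological replicates, DESeq2 with apeglm shrinkage.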

| Sequence | shrunken log2 fold change |
| --- | --- |
| RRIRWRPPRLPRPRPRPRAAPRP | 1.04 |
| RRIRLRPPRLPRPRPRPSIDPRP | -0.191 |
| RRIRERPPRLPRPRPRPAPMPRP | 0.116 |
| RRIRPRPPRLPRPRPRPCYRPRP | -0.154 |
| RRIRNRPPRLPRPRPRPAIHPRP | 0.0529 |
| RRIRIRPPRLPRPRPRPSLQPRP | -0.331 |
| RRIRPRPPRLPRPRPRPARYPRP | 0.19 |
| RRIRERPPRLPRPRPRPAARPRP | 0.226 |
| RRIRPRPPRLPRPRPRPSVRPRP | 0.129 |
| RRIRARPPRLPRPRPRPYRTPRP | -0.0383 |
| RRIRHRPPRLPRPRPRPPSHPRP | -0.139 |
| RRIRYRPPRLPRPRPRPIPSPRP | -0.0334 |
| RRIRKRPPRLPRPRPRPHDTPRP | -0.0804 |
| RRIRWRPPRLPRPRPRPNTIPRP | -0.492 |
| RRIRQRPPRLPRPRPRPWSGPRP | 0.082 |
| RRIRQRPPRLPRPRPRPLTWPRP | -0.21 |
| RRIRMRPPRLPRPRPRPNPCPRP | 0.169 |
| RRIRSRPPRLPRPRPRPFAKPRP | -0.136 |
| RRIRRRPPRLPRPRPRPHAIPRP | -0.042 |
| RRIRERPPRLPRPRPRPTFMPRP | -0.157 |
| RRIRERPPRLPRPRPRPGPFPRP | -0.128 |
| RRIRWRPPRLPRPRPRPVADPRP | 1.07 |
| RRIRQRPPRLPRPRPRPQCTPRP | -0.0165 |
| RRIRIRPPRLPRPRPRPTYYPRP | -0.827 |
| RRIRNRPPRLPRPRPRPGNWPRP | 0.0557 |

| Sequence | shrunken log2 fold change |
| --- | --- |
| RRIRKRPPRLPRPRPRPMPWPRP | 0.321 |
| RRIRNRPPRLPRPRPRPVRVPRP | 0.0666 |
| RRIRLRPPRLPRPRPRPKGMPRP | -0.0948 |
| RRIRWRPPRLPRPRPRPERPPRP | 0.292 |
| RRIRSRPPRLPRPRPRPGPEPRP | 0.221 |
| RRIRRRPPRLPRPRPRPKWCPRP | 0.431 |
| RRIRMRPPRLPRPRPRPYATPRP | -0.0602 |
| RRIRSRPPRLPRPRPRPYSNPRP | -0.549 |
| RRIRLRPPRLPRPRPRPVCFPRP | -0.059 |
| RRIRNRPPRLPRPRPRPYKQPRP | -0.0495 |
| RRIRKRPPRLPRPRPRPMMFPRP | -0.0431 |
| RRIRARPPRLPRPRPRPWYGPRP | -0.634 |
| RRIRNRPPRLPRPRPRPSLLPRP | -0.19 |
| RRIRARPPRLPRPRPRPNVNPRP | -0.0484 |
| RRIRMRPPRLPRPRPRPNVTPRP | 0.0238 |
| RRIRQRPPRLPRPRPRPEALPRP | -0.0434 |
| RRIRHRPPRLPRPRPRPSKGPRP | -0.149 |
| RRIRDRPPRLPRPRPRPVYKPRP | -0.601 |
| RRIRDRPPRLPRPRPRPTKWPRP | 0.0286 |
| RRIRFRPPRLPRPRPRPQKAPRP | 0.0467 |
| RRIRLRPPRLPRPRPRPASGPRP | 0.373 |
| RRIRDRPPRLPRPRPRPQKMPRP | -0.0885 |
| RRIRYRPPRLPRPRPRPHHNPRP | -1.28 |
| RRIRWRPPRLPRPRPRPPLRPRP | 0.418 |
| RRIRDRPPRLPRPRPRPWPWPRP | -0.0837 |

| Sequence | shrunken log2 fold change |
| --- | --- |
| RRIRFRPPRLPRPRPRPIMEPRP | -0.319 |
| RRIRFRPPRLPRPRPRPGPHPRP | 0.305 |
| RRIRWRPPRLPRPRPRPWFMPRP | -0.222 |
| RRIRPRPPRLPRPRPRPLQLPRP | -0.0598 |
| RRIRTRPPRLPRPRPRPQMIPRP | -0.346 |
| RRIRCRPPRLPRPRPRPMGEPRP | 0.0249 |
| RRIRVRPPRLPRPRPRPKNFPRP | 0.0772 |
| RRIRIRPPRLPRPRPRPYGEPRP | -0.148 |
| RRIRSRPPRLPRPRPRPSCAPRP | 0.0589 |
| RRIRERPPRLPRPRPRPHGPPRP | 0.139 |
| RRIRVRPPRLPRPRPRPEKDPRP | 0.188 |
| RRIRYRPPRLPRPRPRPHFRPRP | -0.444 |
| RRIRIRPPRLPRPRPRPCFSPRP | -0.198 |
| RRIRYRPPRLPRPRPRPTMEPRP | 0.0667 |
| RRIRQRPPRLPRPRPRPEYGPRP | -0.0248 |
| RRIRPRPPRLPRPRPRPEPLPRP | 0.0833 |
| RRIRWRPPRLPRPRPRPGWMPRP | 0.366 |
| RRIRNRPPRLPRPRPRPHDFPRP | 0.137 |
| RRIRNRPPRLPRPRPRPSPGPRP | 0.431 |
| RRIRYRPPRLPRPRPRPMPAPRP | 0.348 |
| RRIRWRPPRLPRPRPRPGRDPRP | 0.122 |
| RRIRKRPPRLPRPRPRPQHLPRP | 0.0344 |
| RRIRPRPPRLPRPRPRPVCHPRP | -0.0724 |
| RRIRWRPPRLPRPRPRPVGEPRP | 1.01 |
| RRIRVRPPRLPRPRPRPMCIPRP | -0.047 |

| Sequence | shrunken log2 fold change |
| --- | --- |
| RRIRSRPPRLPRPRPRPRDYPRP | -0.341 |
| RRIRYRPPRLPRPRPRPMWYPRP | -0.884 |
| RRIRMRPPRLPRPRPRPTRSPRP | 1.35 |
| RRIRCRPPRLPRPRPRPYLMPRP | -0.916 |
| RRIRRRPPRLPRPRPRPPHDPRP | 1.49 |
| RRIRFRPPRLPRPRPRPTSQPRP | -0.0191 |
| RRIRDRPPRLPRPRPRPRQNPRP | 0.00972 |
| RRIRTRPPRLPRPRPRPPWRPRP | 0.747 |
| RRIRNRPPRLPRPRPRPNQLPRP | -0.228 |
| RRIRDRPPRLPRPRPRPASMPRP | 0.483 |
| RRIRTRPPRLPRPRPRPCQTPRP | -0.0283 |
| RRIRQRPPRLPRPRPRPCQHPRP | 0.0738 |
| RRIRQRPPRLPRPRPRPNFFPRP | 0.313 |
| RRIRSRPPRLPRPRPRPNGTPRP | -0.188 |
| RRIRNRPPRLPRPRPRPLKFPRP | -0.212 |
| RRIRERPPRLPRPRPRPMPTPRP | -0.00177 |
| RRIRERPPRLPRPRPRPQPCPRP | -0.312 |
| RRIRARPPRLPRPRPRPWSKPRP | -0.27 |
| RRIRHRPPRLPRPRPRPQEDPRP | -0.106 |
| RRIRIRPPRLPRPRPRPMKVPRP | -0.00968 |
| RRIRWRPPRLPRPRPRPGYLPRP | 0.0065 |
| RRIRYRPPRLPRPRPRPQSGPRP | -0.223 |
| RRIRSRPPRLPRPRPRPPVYPRP | 0.0599 |
| RRIRQRPPRLPRPRPRPKWFPRP | -0.107 |
| RRIRERPPRLPRPRPRPIAEPRP | 0.255 |

| Sequence | shrunken log2 fold change |
| --- | --- |
| RRIRIRPPRLPRPRPRPWWCPRP | -0.196 |
| RRIRLRPPRLPRPRPRPQLQPRP | 0.037 |
| RRIRTRPPRLPRPRPRPKSIPRP | -0.194 |
| RRIRIRPPRLPRPRPRPNTAPRP | -0.0523 |
| RRIRARPPRLPRPRPRPSHEPRP | 0.415 |
| RRIRCRPPRLPRPRPRPYRNPRP | 0.0132 |
| RRIRLRPPRLPRPRPRPVFGPRP | 0.0724 |
| RRIRFRPPRLPRPRPRPDVFPRP | -0.119 |
| RRIRFRPPRLPRPRPRPDRHPRP | -0.164 |
| RRIRERPPRLPRPRPRPRHRPRP | -0.114 |
| RRIRIRPPRLPRPRPRPITTPRP | -0.338 |
| RRIRTRPPRLPRPRPRPSVVPRP | -0.384 |
| RRIRMRPPRLPRPRPRPWWPPRP | 0.445 |
| RRIRVRPPRLPRPRPRPLNCPRP | -0.257 |
| RRIRMRPPRLPRPRPRPRRVPRP | 1.3 |
| RRIRPRPPRLPRPRPRPSLIPRP | -0.181 |
| RRIRYRPPRLPRPRPRPETAPRP | 0.00332 |
| RRIRTRPPRLPRPRPRPFYWPRP | -0.348 |
| RRIRARPPRLPRPRPRPQEWPRP | 0.00318 |
| RRIRNRPPRLPRPRPRPVQWPRP | -0.0368 |
| RRIRSRPPRLPRPRPRPIMYPRP | -0.42 |
| RRIRARPPRLPRPRPRPSCYPRP | 0.0075 |
| RRIRYRPPRLPRPRPRPVMNPRP | -0.115 |
| RRIRKRPPRLPRPRPRPDFFPRP | 0.0109 |
| RRIRTRPPRLPRPRPRPHFKPRP | -0.307 |

| Sequence | shrunken log2 fold change |
| --- | --- |
| RRIRTRPPRLPRPRPRPHHLPRP | 0.0331 |
| RRIRSRPPRLPRPRPRPCSEPRP | -0.228 |
| RRIRSRPPRLPRPRPRPQFMPRP | -0.274 |
| RRIRSRPPRLPRPRPRPDFMPRP | -0.159 |
| RRIRTRPPRLPRPRPRPEGMPRP | 0.18 |
| RRIRPRPPRLPRPRPRPRICPRP | 0.0562 |
| RRIRARPPRLPRPRPRPSYNPRP | -0.428 |
| RRIRHRPPRLPRPRPRPPISPRP | -0.378 |
| RRIRTRPPRLPRPRPRPSLRPRP | -0.294 |
| RRIRRRPPRLPRPRPRPLWSPRP | 0.136 |
| RRIRYRPPRLPRPRPRPAEIPRP | -0.148 |
| RRIRVRPPRLPRPRPRPVYGPRP | -0.167 |
| RRIRYRPPRLPRPRPRPCEPPRP | 0.0986 |
| RRIRQRPPRLPRPRPRPDEPPRP | -0.0062 |
| RRIRARPPRLPRPRPRPLASPRP | 0.841 |
| RRIRGRPPRLPRPRPRPINNPRP | -0.0606 |
| RRIRERPPRLPRPRPRPDDCPRP | -0.0573 |
| RRIRLRPPRLPRPRPRPTFWPRP | 0.303 |
| RRIRWRPPRLPRPRPRPRNEPRP | 1.32 |
| RRIRHRPPRLPRPRPRPMIAPRP | -0.0185 |
| RRIRIRPPRLPRPRPRPEDTPRP | 0.0265 |
| RRIRWRPPRLPRPRPRPCSVPRP | 0.0151 |
| RRIRFRPPRLPRPRPRPCTQPRP | -0.549 |
| RRIRMRPPRLPRPRPRPYHEPRP | -0.391 |
| RRIRHRPPRLPRPRPRPTNYPRP | -0.2 |
